Data on 18 molecules can be found in patent publication US20120082667A1 (IMMUNAS PHARMA, published 2012).

The target of one assay is T1, synthesized A beta1-42 (UniProt P05067 672-713).
T1 construct: domain: A beta1-42; spotted in the dot blot as the second of the two types of oligomers; also called A beta42 oligomer
Briefly: dot blot: peptide spotted on nitrocellulose (0.1 micro g/dot), hybridoma culture supernatant, HRP anti-mouse IgG, ECL. The procedure: Dot blot analysis was carried out for hybridomas that gave positive result for primary screening. […] The membrane was blocked with Tris Buffer containing 5% low-fat milk and 0.05% Tween-20, and reacted with hybridoma culture supernatants and detected with chemiluminescence kit (ECL) after reacting with HRP-conjugated anti-mouse IgG antibody.

Assay [1] has as its target T2, A beta monomer prepared from synthetic A beta1-40 (TFA form), 0.1 mg/ml in PBS (UniProt P05067 672-711).
T2 construct: domain: A beta1-40; also called A beta1-40 monomer; A beta40 monomer
The experiment in a line: competitive ELISA: antibody pre-incubated with soluble A beta1-40 monomer (inhibitor, varied), then binding to immobilised A beta1-40 oligomer read as OD450. Background: An ELISA detects its analyte on a solid surface through an enzyme-linked reagent.

In assay [2] the target is T3, A beta oligomer prepared from synthetic A beta1-40 (HCl form), 0.1 mg/ml in PBS, incubated at 37 degrees C … (UniProt P05067 672-711).
T3 construct: domain: A beta1-40; non-fibrous assembly of A beta1-40; also called A beta1-40 oligomer; A beta40 oligomer
The experiment in a line: competitive ELISA: antibody pre-incubated with soluble A beta1-40 oligomer (inhibitor, varied), then binding to immobilised A beta1-40 oligomer read as OD450.

For assay [3], the target named is T3, A beta oligomer prepared from synthetic …. The experiment in a line: SPR, Biacore 3000, A beta1-40 oligomer on CM5 chip, antibody as analyte at five concentrations. As to the method:
The analysis was carried out by Surface Plasmon Resonance (SPR) using Biacore 3000 (GE Healthcare Sciences).
(In general: SPR reads the build-up and loss of mass on a sensor chip optically.)

B1: AL-206 antibody (antibody, IgG2b, V domains shown)
VH: DVQLQESGPGLVKPSQSLSLACTVTGYSITSDYAWNWIRQFPGNKLEWLGYISYSGTTRYNPSLKSRISITRDTSKNQFFLQLNSVTTEDTATYYCAIYGSSYYWYFDVWGAGTTVTVSS
VL: QIVLTQSPAIMSASLGERVTMTCTASSSVSSSYLHWYQQKPGSSPKLWIYSTSNLASGVPARFSGSGSGTSYSLTISSMEAEDAATYYCHQYHRSPPTFGAGTKLELK
On to B1, for which the binding result in the assay with synthesized A beta1-42 is “binds”.

B2: AL-208 antibody (antibody, IgG2b, V domains shown)
VH: QVQLQQPGAELVKPGASVKLSCKASGYTFTSYWMHWVKQRPGQGLEWIGEINPSNGRTNYNEKFKSKATLTVDKSSSTAYMQLSSLTSEDSAVYYCARQGYRHGVFAYWGQGTLVTVSA
VL: QIVLTQSPAIMSASLGERVTMTCTASSSVSSSYLHWYQQKPGSSPKLWIYSTSNLASGVPARFSGSGSGTSYSLTISSMEAEDAATYYCHQYHRSPPTFGAGTKLELK
B2: the binding result with synthesized A beta1-42 is “binds”.

B3: AL-207 antibody (antibody, IgG2b, V domains shown)
VH: QVTLKESGPGILKPSQTLSLTCSFSGFSLSTSGMGVGWIRQPSGKGLEWLAHIWWDDDEYYNPSLKSQLTISKDTTRNQVFLKITSVDTADTATYYCARRAIHYYGYDAMDYWGQGTSVTVSS
VL: QIVLTQSPAIMSASLGERVTMTCTASSSVSSSYLHWYQQKPGSSPKLWIYSTSNLASGVPARFSGSGSGTSYSLTISSMEAEDAATYYCHQYHRSPPTFGAGTKLELK
On to B3, for which the binding result with synthesized A beta1-42 is “binds”.

B4: AL-211 antibody (antibody, IgG2b, V domains shown)
VH: QVTLKESGPGILKPSQTLSLTCSFSGFSLSTSGMGVGWIRQPSGKGLEWLAHIWWDDDKYYNPSLKSQLTISKDTSRNQVFLKITSVDTADTATYYCARRSLSRDYFDYWGQGTTLTVSS
VL: DVVMTQTPLSLPVSLGDQASISCRSSQSLVHSNGNTYLHWYLQKPGQSPKLLIYKVSNRFSGVPDRFSGSGSGTDFTLKISRVEAEDLGVYFCSQSTHVPLTFGAGTKLELK
Regarding B4, the binding result with synthesized A beta1-42 is recorded as “binds”.

B5: AL-223 antibody (antibody, IgG2a, V domains shown)
VH: QVTLKESGPGILKPSQTLSLTCSFSGFSLSTSGMGVGWIRQPSGKGLEWLAHIWWDDDKYYNPSLKSQLTISKDTSRNQVFLKITSVDTADTATYYCARRALITTRDYFDYWGQGTTLTVSS
VL: DVLMTQTPLSLPVSLGDQASISCRSSQSIVHSNGNTYLEWYLQKPGQSPKLLIYKVSNRFSGVPDRFSGSGSGTDFTLKISRVEAEDLGVYYCFQGSHVPLTFGAGTKLELK
For B5, the binding result (in assay [1]; in the assay with synthesized A beta1-42; in assay [2]) was “binds” each time.

B6: AL-217 antibody (antibody, IgG1, V domains shown)
VH: QVTLKESGPGILQPSQTLSLTCSFSGFSLSTSGMGVSWIRQPSGKGLEWLAHIYWDDDKRYNPSLKSRLTISKDTSSNQVFLKITSVDTADTATYYCARRGPSYYRYRDYFDYWGQGTTLTVSS
VL: DVLMTQTPLSLPVSLGDQASISCRSSQSIVHSNGNTYLEWYLQKPGQSPKLLIYKVSNRFSGVPDRFSGSGSGTDFTLKISRVEAEDLGVYYCFQGSHVPLTFGAGTKLELK
Take B6: in assay [3], binding was characterised by a dissociation constant (Kd) of 6.44 nM, the koff (usually a measure of how fast the partners let go of each other) was found to be 0.00123 s⁻¹ and the kon (usually a measure of how fast the partners come together) came to 191000 M⁻¹ s⁻¹.

B7: AL-227 antibody (antibody, IgG2a, V domains shown)
VH: not shown
VL: DVVMTQTPLSLPVSLGDQASISCRSSQSLVHSNGNTYLHWYLQKPGQSPKLLIYKVSNRFSGVPDRFSGSGSGTDFTLKISRVEAEDLGVYFCSQSTHVPLTFGAGTKLELK
As to B7, in the assay with synthesized A beta1-42, the binding result is on record as “binds”.

B8: AL-212 antibody (antibody, IgG2b, V domains shown)
VH: QVTLKESGPGILKPSQTLSLTCSFSGFSLSTSGMGVGWIRQPSGKGLEWLAHIWWDDDKYYNPSLKSQLTISKDTSRNQVFLKITSVDTADTATYYCAPSTMITTFAYWGQGTLVTVSA
VL: DVVMTQTPLSLPVSLGDQASISCRSSQSLVHSNGNTYLHWYLQKPGQSPKLLIYKVSNRFSGVPDRFSGSGSGTDFTLKISRVEAEDLGVYFCSQSTHVPLTFGAGTKLELK
In the case of B8, the binding result with synthesized A beta1-42 is listed as “binds”.

B9: AL-222 antibody (antibody, IgG2b, V domains shown)
VH: QVTLKESGPGILKPSQTLSLTCSFSGFSLSTAGMGVGWIRQPSGKGLEWLAHIWWDDDKYYNPSLKSQLTISKDTSRNQVFLKITSVDTADTATYYCARRGLYYGNYDAMDYWGQGTSVTVSS
VL: DVLMTQTPLSLPVSLGDQASISCRSSQSIVHSNGNTYLEWYLQKPGQSPKLLIYKVSTRFSGVPDRFSGSGSGTDFTLKISRVEAEDLGVYYCFQGSRVPLTFGAGTKLELK
In the case of B9, the binding result (in assay [1]; with synthesized A beta1-42; in assay [2]) was “binds” throughout.

B10: AL-226 antibody (antibody, IgG2b, V domains shown)
VH: not shown
VL: DVVMTQTPLSLPVSLGDQASISCRSSQSLVHSNGNTYLHWYLQKPGQSPKLLIYKVSNRFSGVPDRFSGSGSGTDFTLKISRVEAEDLGVYFCSQSTHVPLTFGAGTKLELK
In the case of B10, the binding result with synthesized A beta1-42 is “binds”.

B11: AL-213 antibody (antibody, IgG2b, V domains shown)
VH: QVQLKQSGPGLVQPSQSLSITCTVSGFSLTSYGVHWVRQSPGKGLEWLGVIWRGGSTDYNAAFMSRLSITKDNSKSQVFFKMNSLQADDTAIYYCANNRYERGGYYAMDYWGQGTSVTVSS
VL: DVLMTQTPLSLPVSLGDQASISCRSSQSIVHSNGNTYLEWYLHKPGQSPKLLIYKVSNRFSGVPDRFSGSGSGTDFTLKISRVEAEDLGVYYCFQGSHVPLTFGAGTKLELK
As for B11, the binding result in the assay with synthesized A beta1-42 was “binds”.

B12: AL-216 antibody (antibody, IgG2b, V domains shown)
VH: QVQLQQPGAELVKPGASVKLSCKASGYTFTSYWMHWVKQRPGQGLEWIGEINPSNGRTNYNEKFKSKATLTVDKSSSTAYMQLSSLTSEDSAVYYCAREHYYGYGAYWGQGTLVTVSA
VL: DVLMTQTPLSLPVSLGDQASISCRSSQSIVHSNGNTYLEWYLQKPGQSPKLLIYKVSNRFSGVPDRFSGSGSGTDFTLKISRVEAEDLGVYYCFQGSHVPLTFGAGTKLELK
Turning to B12, the binding result with synthesized A beta1-42 is “binds”.

B13: AL-228 antibody (antibody, IgG2a, V domains shown)
VH: QVTLKESGPGILKPSQTLSLTCSFSGFSLSTSGMGVGWIRQPSGKGLEWLAHIWWDDDKYYNPSLKSRLTISKDTSRNQVFLKITSVDTADTATYYCTRRALLRLQGDYFDYWGQGTTLTVSS
VL: DVLMTQTPLSLPVSLGDQASISCRSSQSIVHSNGNTYLEWYLQKPGQSPKLLIYKVSNRFSGVPDRFSGSGSGTDFTLKISRVEAEDLGVYYCFQGSHVPLTFGAGTKLELK
For the molecule B13, the binding result with synthesized A beta1-42 is “binds”.

B14: AL-220 antibody (antibody, IgG2b, V domains shown)
VH: QVQLQQPGAELVKPGASVKLSCKASGYTFTSYWMHWVKQRPGQGLEWIGEINPSNGRTNYNEKFKSKATLTVDKSSSTAYMQLSSLTSEDSAVYYCAREHYYGYGAYWGQGTLVTVSA
VL: DVLMTQTPLSLPVSLGDQASISCRSSQSIVHSNGNTYLEWYLQKPGQSPKLLIYKVSNRFSGVPDRFSGSGSGTDFTLKISRVEAEDLGVYYCFQGSHVPYTFGGGTKLEIK
With B14, the binding result with synthesized A beta1-42 is “binds”.

B15: AL-225 antibody (antibody, IgG2a, V domains shown)
VH: QVTLKESGPGILKPSQTLSLTCSFSGFSLSTSGMGVGWIRQPSGKGLEWLAHIWWDDDKYYNPSLKSQLTISKDTSRNQVFLKITSVDTADTATYYCARRGLIRQDYFDYWGQGTTLTVSS
VL: DVLMTQTPLSLPVSLGDQASISCRSSQSIVHSNGNTYLEWYLQKPGQSPKLLIYKVSNRFSGVPDRFSGSGSGTDFTLKISRVEAEDLGVYYCFQGSHVPLTFGAGTKLELK
Regarding B15, in assay [3], binding was characterised by a dissociation constant (Kd) of 126 nM, the koff was 0.0192 s⁻¹ and the kon turned out to be 152000 M⁻¹ s⁻¹.

B16: AL-214 antibody (antibody, IgG2b, V domains shown)
VH: QVQLKQSGPGLVQPSQSLSITCTVSGFSLTSYGVHWVRQSPGKGLEWLGVIWRGGSTDYNAAFMSRLSITKDNSKSQVFFKMNSLQADDTAIYYCANNRYERGGYYAMDYWGQGTSVTVSS
VL: DVLMTQTPLSLPVSLGDQASISCRSSQSIVHSNGNTYLEWYLQKPGQSPKLLIYKVSNRFSGVPDRFSGSGSGTDFTLKISRVEAEDLGVYYCFQGSHVPLTFGAGTKLELK
For the molecule B16, the binding result in the assay with synthesized A beta1-42 is given as “binds”.

B17: AL-202 antibody (antibody, IgG2a, V domains shown)
VH: EVQLVESGGDLVKPGGSLKLSCAASGFTFSSYGMSWVRQTPDKRLEWVATISSGGSYTYYPDSVKGRFTISRDNAKNTLYLQMSSLKSEDTAMYYCARPLYYRHGVFAYWGQGTLVTVSA
VL: DVQITQSPSYLAASPGETITINCRASKSISKYLAWYQEKPGKTNKLLIYSGSTLQSGIPSRFSGSGSGTDFTLTISSLEPEDFAMYYCQQHNEYPWTFGGGTKLEIK
For B17, the binding result with synthesized A beta1-42 is listed as “binds”.

B18: AL-224 antibody (antibody, IgG2a, V domains shown)
VH: DVQLVESGGGLVQPGGSRKLSCAASGFTFSSFGMHWVRQAPEKGLEWVAYISSGSSTIYYADTVKGRFTISRDNPKNTLFLQMTSLRSEDTAMYYCARYGNYAMDYWGQGTSVTVSS
VL: DVLMTQTPLSLPVSLGDQASISCRSSQSIVHSNGNTYLEWYLQKPGQSPKLLIYKVSNRFSGVPDRFSGSGSGTDFTLKIGRVEAEDLGVYYCFQGSHVPPTFGGGTELEIK
In the case of B18, in assay [3], the Kd (usually the free concentration of one partner at which half of the binding sites on the other are occupied at equilibrium, for simple one-to-one binding) was determined as 544 nM; the koff was 0.155 s⁻¹; the kon turned out to be 285000 M⁻¹ s⁻¹.
